Experimental data taken from patent publication US20210388087A1 (Chugai, published 2021).

B1: H183/L072 VH I51L (antibody, name in Kabat numbering, V domains shown)
VH: QVQLVESGGGLVQPGRSLRLSCAASGFTFSNAWMHWVRQAPGKGLEWVAQLKDKGNAYAAYYAPSVKGRFTISRDDSKNSIYLQMNSLKTEDTAVYYCHYVHYASASTVLPAFGVDAWGQGTTVTVSS
VL: DIVMTQSPLSLPVTPGEPASISCQASQELVHMNRNTYLHWYQQKPGQAPRLLIYKVSNRFPGVPDRFSGSGSGTDFTLKISRVEAEDVGVYYCAQGTSVPFTFGQGTKLEIK
B2: H183/L072 VH I51M (antibody, name in Kabat numbering, V domains shown)
VH: QVQLVESGGGLVQPGRSLRLSCAASGFTFSNAWMHWVRQAPGKGLEWVAQMKDKGNAYAAYYAPSVKGRFTISRDDSKNSIYLQMNSLKTEDTAVYYCHYVHYASASTVLPAFGVDAWGQGTTVTVSS
VL: DIVMTQSPLSLPVTPGEPASISCQASQELVHMNRNTYLHWYQQKPGQAPRLLIYKVSNRFPGVPDRFSGSGSGTDFTLKISRVEAEDVGVYYCAQGTSVPFTFGQGTKLEIK
B3: H183/L072 VH I51N (antibody, name in Kabat numbering, V domains shown)
VH: QVQLVESGGGLVQPGRSLRLSCAASGFTFSNAWMHWVRQAPGKGLEWVAQNKDKGNAYAAYYAPSVKGRFTISRDDSKNSIYLQMNSLKTEDTAVYYCHYVHYASASTVLPAFGVDAWGQGTTVTVSS
VL: DIVMTQSPLSLPVTPGEPASISCQASQELVHMNRNTYLHWYQQKPGQAPRLLIYKVSNRFPGVPDRFSGSGSGTDFTLKISRVEAEDVGVYYCAQGTSVPFTFGQGTKLEIK
B4: H183/L072 VH I51P (antibody, name in Kabat numbering, V domains shown)
VH: QVQLVESGGGLVQPGRSLRLSCAASGFTFSNAWMHWVRQAPGKGLEWVAQPKDKGNAYAAYYAPSVKGRFTISRDDSKNSIYLQMNSLKTEDTAVYYCHYVHYASASTVLPAFGVDAWGQGTTVTVSS
VL: DIVMTQSPLSLPVTPGEPASISCQASQELVHMNRNTYLHWYQQKPGQAPRLLIYKVSNRFPGVPDRFSGSGSGTDFTLKISRVEAEDVGVYYCAQGTSVPFTFGQGTKLEIK
B5: H183/L072 VH I51Q (antibody, name in Kabat numbering, V domains shown)
VH: QVQLVESGGGLVQPGRSLRLSCAASGFTFSNAWMHWVRQAPGKGLEWVAQQKDKGNAYAAYYAPSVKGRFTISRDDSKNSIYLQMNSLKTEDTAVYYCHYVHYASASTVLPAFGVDAWGQGTTVTVSS
VL: DIVMTQSPLSLPVTPGEPASISCQASQELVHMNRNTYLHWYQQKPGQAPRLLIYKVSNRFPGVPDRFSGSGSGTDFTLKISRVEAEDVGVYYCAQGTSVPFTFGQGTKLEIK
B6: H183/L072 VH I51R (antibody, name in Kabat numbering, V domains shown)
VH: QVQLVESGGGLVQPGRSLRLSCAASGFTFSNAWMHWVRQAPGKGLEWVAQRKDKGNAYAAYYAPSVKGRFTISRDDSKNSIYLQMNSLKTEDTAVYYCHYVHYASASTVLPAFGVDAWGQGTTVTVSS
VL: DIVMTQSPLSLPVTPGEPASISCQASQELVHMNRNTYLHWYQQKPGQAPRLLIYKVSNRFPGVPDRFSGSGSGTDFTLKISRVEAEDVGVYYCAQGTSVPFTFGQGTKLEIK
B7: H183/L072 VH I51S (antibody, name in Kabat numbering, V domains shown)
VH: QVQLVESGGGLVQPGRSLRLSCAASGFTFSNAWMHWVRQAPGKGLEWVAQSKDKGNAYAAYYAPSVKGRFTISRDDSKNSIYLQMNSLKTEDTAVYYCHYVHYASASTVLPAFGVDAWGQGTTVTVSS
VL: DIVMTQSPLSLPVTPGEPASISCQASQELVHMNRNTYLHWYQQKPGQAPRLLIYKVSNRFPGVPDRFSGSGSGTDFTLKISRVEAEDVGVYYCAQGTSVPFTFGQGTKLEIK
B8: H183/L072 VH I51T (antibody, name in Kabat numbering, V domains shown)
VH: QVQLVESGGGLVQPGRSLRLSCAASGFTFSNAWMHWVRQAPGKGLEWVAQTKDKGNAYAAYYAPSVKGRFTISRDDSKNSIYLQMNSLKTEDTAVYYCHYVHYASASTVLPAFGVDAWGQGTTVTVSS
VL: DIVMTQSPLSLPVTPGEPASISCQASQELVHMNRNTYLHWYQQKPGQAPRLLIYKVSNRFPGVPDRFSGSGSGTDFTLKISRVEAEDVGVYYCAQGTSVPFTFGQGTKLEIK
B9: H183/L072 VH I51V (antibody, name in Kabat numbering, V domains shown)
VH: QVQLVESGGGLVQPGRSLRLSCAASGFTFSNAWMHWVRQAPGKGLEWVAQVKDKGNAYAAYYAPSVKGRFTISRDDSKNSIYLQMNSLKTEDTAVYYCHYVHYASASTVLPAFGVDAWGQGTTVTVSS
VL: DIVMTQSPLSLPVTPGEPASISCQASQELVHMNRNTYLHWYQQKPGQAPRLLIYKVSNRFPGVPDRFSGSGSGTDFTLKISRVEAEDVGVYYCAQGTSVPFTFGQGTKLEIK
B10: H183/L072 VH I51W (antibody, name in Kabat numbering, V domains shown)
VH: QVQLVESGGGLVQPGRSLRLSCAASGFTFSNAWMHWVRQAPGKGLEWVAQWKDKGNAYAAYYAPSVKGRFTISRDDSKNSIYLQMNSLKTEDTAVYYCHYVHYASASTVLPAFGVDAWGQGTTVTVSS
VL: DIVMTQSPLSLPVTPGEPASISCQASQELVHMNRNTYLHWYQQKPGQAPRLLIYKVSNRFPGVPDRFSGSGSGTDFTLKISRVEAEDVGVYYCAQGTSVPFTFGQGTKLEIK
B11: H183/L072 VH I51Y (antibody, name in Kabat numbering, V domains shown)
VH: QVQLVESGGGLVQPGRSLRLSCAASGFTFSNAWMHWVRQAPGKGLEWVAQYKDKGNAYAAYYAPSVKGRFTISRDDSKNSIYLQMNSLKTEDTAVYYCHYVHYASASTVLPAFGVDAWGQGTTVTVSS
VL: DIVMTQSPLSLPVTPGEPASISCQASQELVHMNRNTYLHWYQQKPGQAPRLLIYKVSNRFPGVPDRFSGSGSGTDFTLKISRVEAEDVGVYYCAQGTSVPFTFGQGTKLEIK
B12: H183/L072 VH K52A (antibody, name in Kabat numbering, V domains shown)
VH: QVQLVESGGGLVQPGRSLRLSCAASGFTFSNAWMHWVRQAPGKGLEWVAQIADKGNAYAAYYAPSVKGRFTISRDDSKNSIYLQMNSLKTEDTAVYYCHYVHYASASTVLPAFGVDAWGQGTTVTVSS
VL: DIVMTQSPLSLPVTPGEPASISCQASQELVHMNRNTYLHWYQQKPGQAPRLLIYKVSNRFPGVPDRFSGSGSGTDFTLKISRVEAEDVGVYYCAQGTSVPFTFGQGTKLEIK
B13: H183/L072 VH K52D (antibody, name in Kabat numbering, V domains shown)
VH: QVQLVESGGGLVQPGRSLRLSCAASGFTFSNAWMHWVRQAPGKGLEWVAQIDDKGNAYAAYYAPSVKGRFTISRDDSKNSIYLQMNSLKTEDTAVYYCHYVHYASASTVLPAFGVDAWGQGTTVTVSS
VL: DIVMTQSPLSLPVTPGEPASISCQASQELVHMNRNTYLHWYQQKPGQAPRLLIYKVSNRFPGVPDRFSGSGSGTDFTLKISRVEAEDVGVYYCAQGTSVPFTFGQGTKLEIK
B14: H183/L072 VH K52E (antibody, name in Kabat numbering, V domains shown)
VH: QVQLVESGGGLVQPGRSLRLSCAASGFTFSNAWMHWVRQAPGKGLEWVAQIEDKGNAYAAYYAPSVKGRFTISRDDSKNSIYLQMNSLKTEDTAVYYCHYVHYASASTVLPAFGVDAWGQGTTVTVSS
VL: DIVMTQSPLSLPVTPGEPASISCQASQELVHMNRNTYLHWYQQKPGQAPRLLIYKVSNRFPGVPDRFSGSGSGTDFTLKISRVEAEDVGVYYCAQGTSVPFTFGQGTKLEIK
B15: H183/L072 VH K52F (antibody, name in Kabat numbering, V domains shown)
VH: QVQLVESGGGLVQPGRSLRLSCAASGFTFSNAWMHWVRQAPGKGLEWVAQIFDKGNAYAAYYAPSVKGRFTISRDDSKNSIYLQMNSLKTEDTAVYYCHYVHYASASTVLPAFGVDAWGQGTTVTVSS
VL: DIVMTQSPLSLPVTPGEPASISCQASQELVHMNRNTYLHWYQQKPGQAPRLLIYKVSNRFPGVPDRFSGSGSGTDFTLKISRVEAEDVGVYYCAQGTSVPFTFGQGTKLEIK
B16: H183/L072 VH K52G (antibody, name in Kabat numbering, V domains shown)
VH: QVQLVESGGGLVQPGRSLRLSCAASGFTFSNAWMHWVRQAPGKGLEWVAQIGDKGNAYAAYYAPSVKGRFTISRDDSKNSIYLQMNSLKTEDTAVYYCHYVHYASASTVLPAFGVDAWGQGTTVTVSS
VL: DIVMTQSPLSLPVTPGEPASISCQASQELVHMNRNTYLHWYQQKPGQAPRLLIYKVSNRFPGVPDRFSGSGSGTDFTLKISRVEAEDVGVYYCAQGTSVPFTFGQGTKLEIK
B17: H183/L072 VH K52H (antibody, name in Kabat numbering, V domains shown)
VH: QVQLVESGGGLVQPGRSLRLSCAASGFTFSNAWMHWVRQAPGKGLEWVAQIHDKGNAYAAYYAPSVKGRFTISRDDSKNSIYLQMNSLKTEDTAVYYCHYVHYASASTVLPAFGVDAWGQGTTVTVSS
VL: DIVMTQSPLSLPVTPGEPASISCQASQELVHMNRNTYLHWYQQKPGQAPRLLIYKVSNRFPGVPDRFSGSGSGTDFTLKISRVEAEDVGVYYCAQGTSVPFTFGQGTKLEIK
B18: H183/L072 VH K52I (antibody, name in Kabat numbering, V domains shown)
VH: QVQLVESGGGLVQPGRSLRLSCAASGFTFSNAWMHWVRQAPGKGLEWVAQIIDKGNAYAAYYAPSVKGRFTISRDDSKNSIYLQMNSLKTEDTAVYYCHYVHYASASTVLPAFGVDAWGQGTTVTVSS
VL: DIVMTQSPLSLPVTPGEPASISCQASQELVHMNRNTYLHWYQQKPGQAPRLLIYKVSNRFPGVPDRFSGSGSGTDFTLKISRVEAEDVGVYYCAQGTSVPFTFGQGTKLEIK
B19: H183/L072 VH K52L (antibody, name in Kabat numbering, V domains shown)
VH: QVQLVESGGGLVQPGRSLRLSCAASGFTFSNAWMHWVRQAPGKGLEWVAQILDKGNAYAAYYAPSVKGRFTISRDDSKNSIYLQMNSLKTEDTAVYYCHYVHYASASTVLPAFGVDAWGQGTTVTVSS
VL: DIVMTQSPLSLPVTPGEPASISCQASQELVHMNRNTYLHWYQQKPGQAPRLLIYKVSNRFPGVPDRFSGSGSGTDFTLKISRVEAEDVGVYYCAQGTSVPFTFGQGTKLEIK
B20: H183/L072 VH K52M (antibody, name in Kabat numbering, V domains shown)
VH: QVQLVESGGGLVQPGRSLRLSCAASGFTFSNAWMHWVRQAPGKGLEWVAQIMDKGNAYAAYYAPSVKGRFTISRDDSKNSIYLQMNSLKTEDTAVYYCHYVHYASASTVLPAFGVDAWGQGTTVTVSS
VL: DIVMTQSPLSLPVTPGEPASISCQASQELVHMNRNTYLHWYQQKPGQAPRLLIYKVSNRFPGVPDRFSGSGSGTDFTLKISRVEAEDVGVYYCAQGTSVPFTFGQGTKLEIK

Biological target: T1, Human CD3eg linker (human)
T1 construct: Single chain: epsilon and gamma subunits of human CD3 joined by a 29-mer linker, Flag-tag at the C-terminus; also called recombinant human CD3
T1 chain: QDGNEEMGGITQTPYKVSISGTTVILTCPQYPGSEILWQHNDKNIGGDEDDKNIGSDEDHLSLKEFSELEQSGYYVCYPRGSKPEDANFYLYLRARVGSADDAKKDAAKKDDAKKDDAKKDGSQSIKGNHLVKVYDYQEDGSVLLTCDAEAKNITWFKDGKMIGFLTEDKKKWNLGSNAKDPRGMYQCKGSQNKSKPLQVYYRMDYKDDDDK
Assay: Biacore SPR, vs template H183/L072

Fold change of affinity, 0.6 fold:
B20

Fold change of affinity, 0.2 fold:
B8

Fold change of affinity, 0.4 fold:
B7

Fold change of affinity, 0 fold:
B1, B3, B4, B5, B6, B10, B11, B12, B13, B14, B15, B16, B17, B18, B19

Fold change of affinity, 1.1 fold:
B9

Fold change of affinity, 0.3 fold:
B2
